# Measured values taken from the nanobody polyreactivity screen of Harvey et al. (2022).
# Test: yeast display, Sf9 membrane polyspecificity reagent, FACS + sequencing; frameworks hold sequencing errors
# Method in brief: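 A nanobody's polyreactivity label depends on the gate it was sorted from. Yeast display cells were stained with 10% biotinylated, detergent-solubilized Sf9 membrane reagent for 1 hour at 4 °C, enriched on streptavidin microbeads and sorted by FACS. The low and high (top ~1%) gates were set on anti-HA fluorescence for expression and streptavidin fluorescence for reagent binding.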
row,Sequence,polyreactivity (PSR sort gate)
1,QVQLVESGGGLVQAGGSLRLSCAASGSNFVLYAMGWYRQAPGKESELVAAISSSGGSTYADSVKGRFTISRDNAKNTVYLQMNSLKPEDTAVYYCARDVYLSDPPRDYDYWGQGTQVTVSS,low polyreactivity
2,QVQLVESGGGLVQAGGSLRLSCSASGTFYGYAMAWSRQAPGKERELVASSTWGGGRTYYADSVKGRFTTSRDNAKNTVYLQMNSLKPEDTAVYYCATRSRPQYNKYDYWGQGTQVTVSS,high polyreactivity
3,QVQLVESGGGLVLAGGSLRLSCAASGSIFSLYAMGWYRQAPGKEREVVAALSRGGSTNYADSVKGRFTISRDTAKNTVYLQMNCLKPEDTAVYYSNAGFGVRRKHITVYTWYDYWGQGTQVTVSS,low polyreactivity
4,QVQLVESEGGLVQAGGSLRLSCAASGFIFKYNDMGWYRQAPGKERELVAAIDVRTGLTYYADSVKGRFTISRDNAKTTVYLQMNSLKPEDPAVYYCNADYIQYAYDYWGQGTQVTVSS,high polyreactivity
5,QVQLVESGGGLVQAGGSLRLSCAASGLTFGAYAMGWYRQAPGKEREFVAAITYSGGSTNYADSVKGRFTISRDNAMNTVYLQMNSLKPEDTAVYYCNAGYYSPWAFYPYDYWGQGTQVTVSS,high polyreactivity
6,QVQLVESGGGLVQAGGSLRLSLAASGSIFSYYAMGWYRQAPWKERELVAAISYSGSDTYYADSVKGRFTISRDNAKNTVYLQMNSLNPEDTAVYYCAAEDPSYSYDYWGQGTQVTVSS,low polyreactivity
7,QVQLVESGGGLVQAGGSLRLSCAASGSTFTKNAMGWYRQAPGKERELVAAISFSGGSTYYADSVKGRFTISRDNAKNTVYLQMNSLKPEHTAVYYCAADPHRALPRFDYWGQGTQVTVSS,low polyreactivity
8,QVQLVESGGGLDQAGGSLRLSCAASGFTFAVYAMGWYRQAPAKERELVAAISRSGTRTYYADSVKGRFTISRDNAKNTVYLQMNSLKREDNAVYYCAADNYRHGYEYWGLGTQVTVSS,high polyreactivity
9,QVQLVESCGVLVQAGGSLRLSCAASGFILYGNAMGWYRQAHGKERELVAAISRRGGSTYYADSVKGRFTISRDNAKNTVYLQMNSLKPEDTAVYYCAKDGPGGGTRIYDYWGLGTQVTVSS,high polyreactivity
10,QVQLVESGGGLVQAGGSLRLSCAASGRTFPGYAMGWYRQAPGKERELVAAITSSGDDTYYADSVKGRFTISRDNAKNTVYLQMYSLKPEDTAVYYCRLFRRSADSSFDYEYWGQGTQVTVSS,low polyreactivity
11,QVQLVESGGGLVQAGGSLRLSCAASGRIFKTNAMGWYRQAPGKERELVAAISKRGGRTYYADSVKGRFTISRDNAKNTVYLQMNSLKPEDTAVYYCATRYSGYSLGDYWGQGTQVTVSS,high polyreactivity
12,QVQLVESGGGLVQAGGSLRLSCAASGFIFRYYAMGWSRQAPGKERELVAAISTGGSTHYADSVKGRFTISRDNAKNTVYLQMNSLKPEDTAVYYCAAPRYFRVRYGYWGQGTQVTVSS,high polyreactivity
13,QVQLVESGGGLVQAGGSLRLSCAASGRTFVGYVMGWDRQAPGKERELVAAISTSGGRTYYADSVKGRFTISRDNAKNTGYLQMNSLKPEDTAVYYCNAVSKQPIGYEYWGQGSQVTVSS,high polyreactivity
14,QVQLVESGGGLVQAGGSLRLSCAASGRTLHYYAMGWYRQAPGKERELVAAISARVGRTYYADSVKGRFTISRDNAKNTVYLQMNSLKPEDTEVYYCAAAGYITRYDRYDYWGQGTQVTVSS,high polyreactivity
15,LVQLVESGGGLVQAGGSLRLSCAASGRIFLKYAMGWYRQSPGKERELVAAISRRGASTYYADSVKGRFTISRDYGKNSVYLLMKSLKPDDTAVYYCNARTSSGMDYWGQGTQVTVSS,high polyreactivity
16,QVQLVESGGCLVQAGGSLRLSCAASGFIFAKYAMGWYRQAPGKEREFVAAISFSGASTYYADSVKGRFTISRDNAKNTVYLQMNSLKPEDTAVYYCAAYWDAEGRRYTRLEYWGQGTQVTVSS,low polyreactivity
17,QVQLVESGGGLVQAGGSLRLSCAASGRILHANAMGWYRQAPGKERELVAAITGRGGSTYYADSVKGRFTISRDNAKITVYLQMNSLKPEDTAVYYCAARVKQAGYRMDYWVQGTQVTVSS,high polyreactivity
18,QVQLVESGGGLVQAGGSLRLSCAASGRTFEGNAMGWYRQAPGKERELDAAITSGGRTNYADSVKGRFTISRDNAKNTVYLQMNSLKPEDTAVYYCAVETRDRSTSFPGQAYDYWGQGSQVTVSS,low polyreactivity
19,QVQLVESGGGLVQAGGSLRLSCAASGSTFVGYAMGWYRQAPGKVRELVADITSGGGITYYADSVKGRFTISRDNAKNTVYLQMNSLKPDDTAVYYCAPGRPRPHWWSLDYYYWGQGTQVTVSS,low polyreactivity
20,QVQLVESGGGLVQAGGSLRLSCPASGFTFHHYVMGWYRPAPGKEMEFVASIRWRGGSTYYADSVKGRFTISRDNAKTTVYLQMNSLKPEDTAVYYSNADPYVYSSWQYGYWGQGTQVTVSS,high polyreactivity
21,QVQLVESGGGLVQAGGSLRLSCAASGRTFGYYGMGWYRQAPGKERELVAAIRRRSGSTYYADSVKGRFTISRDNSKNTFYLQMNSLKPEDTAVYYCNQIRVSNFDYWGQGTQVTVSS,high polyreactivity
22,QVQLVESGGGLVQAGGSLRLSCAASGFTFSRYAMGWYRQAPGKEREFVAAISWSGGSTYYADSVKGRFTISRDNAKNTVYLQMNSLKPEDTAVYYCNAGSQLLASQTRYDYWGQGTQVTVSS,low polyreactivity

row,Sequence,polyreactivity (PSR sort gate)
1,QVQLVESGGGLVQAGGSLRLSCAASGFTFWYYAMGWYRQAPGKERELVATITSGDSTKYADSVKGRFTISRDNAKNTVYLQMNSLKPEDTAVYDCAAEKVLPFIGYDYWGQGTQVTVSS,low polyreactivity
2,QVQLVESGGGLVQAGGSLRLSSAASGSTFGYYAMGWYRQAPGKERELVAVIRSRTGDTNYADSVKGRFTISRDNAKNTVYLQMNSQKPEDTAVYYCNAALWYGSTIYSYRYGYWGHGTQVTVSS,high polyreactivity
3,QVQLVESGGGLVQEGGSLRLSCAASGINFNVNALGWYKQAPGKERELVARITTSGGSTSYADSVKGRFTISRDNAKNTVYLQMNSLKPDDTAVYYCAADRARYYSEYDYWGQGTQVNVSS,low polyreactivity
4,QVQLVESGGGLVQAGGSLRLSCAASGRIVGRNAMGWYRQAPGKERELVAAISSGGGRTYYADSVKGRFTISRDNAKNTVYLQMNSLKPEDTAVYYCNAGWRGRFYYWGQGTQVTVSS,high polyreactivity
5,QVQLVESGGGLVQAGGSLRLSCAASGSTFGWYAMGWYRQAPGKERELVASITWDGGRTYYAHSVKGRFTISRDNAKNTVYLQMNSLKPEDTAVYYCAARGVSSPLNYWGQGSQVTVSS,low polyreactivity
6,QVQLVESGGGLVQAGGSLRLSCAASGSIIVRYAMGWYRQAPGKDRELVATITFRDTSTYYADSEKGRFTISRDNAKNTVYLQMNSLKPEDTAVYYCAAVRAVLWDIARYDYWGQGSQVTVSS,low polyreactivity
7,KVQIVESGGGLVQAGGSLRLSCAASGRTFVVNGMGRYRQAPGKDRELVAAINTSGGSTHYADSVKGRITISRDNAKNTVYLQMNILKPEDTAVYYCAAVGYWRDYSGYWDYYYIYDYWGQGTQVNVSS,low polyreactivity
8,QVQLVESGGCLVQAGGSLRLSCAASGITFVGNAMGCYRQAPVKERELVAGIRGNGGSTYYADSVKGRFTISRDYAKNTVYLQMNSLKPEDTAVYYCAAAAYYADFDYWGQGTQVTVSS,low polyreactivity
9,QVQLVESGGGLVQAGGSLRLSCAASGSIFRKNVMGWSRPAPGKERELVAAITASGGRTYYADSVKGRFTISRDNAKNTVYLQMNSLKPEDTAVYYCAARRYYPYISSGPYYYWGQGTQVTVSS,high polyreactivity
10,QVQLVESGGGLVQAGGSLRLSCADSGSTLYRYAMGWYRQAPGKERELVDAISSAGSTHYADSVKGRFTISRDNAKNTVYLQMNSLKPEDTAVYYCNAVRKTFDYNYWGQGTQVTVSS,high polyreactivity
11,QVQLVESGGGLVQAGGSLRLSCAASGSIFSTYAMGWYRQAPGKERELVAAISGSGGSTYYADSVKGRFTISRDNAKNTVYLQMNSLKPEDTAVYYCNRLPYVSSAYVGLGYWGQGTQVTVSS,high polyreactivity
12,QVQLVESGGGLVQAGGSLRLSCAASGRTFSIYAMGWYRQAPGKERELVAAISNGGRTKYADSVKGRFTISRDNAKNTVYLQMNSLKPEDTAVYYCAASRPRPPSSRRMDYWGQGTQVTVSS,high polyreactivity
13,QVQLVESGGRLVQAGGSLRLSCAASGRTFTYYAMGWYRQATGKERELVARITTVGSSTYYADSVKGRFTISRDNAKNTVYLQMNSLKPEETAVYYCNADHLWYSLFDYWGQGTQVTVSS,high polyreactivity
14,QVQLVESGGGLVQAGGSLRLSCAASGSTFPLYAMGWYRQAPGKERELVAAITTGGGNTYYADSVKGRFTISRDNAKNTVYLQLNSLTPEDTAVYYCAKPYHIGLSGRRTYDYWGQGTQVTVSS,high polyreactivity
15,QVQLVESGGGLFQAGGSLRLTCAASGSIFTVYSIGLYRQAPGKERELVAGISSGAGTTYADSVKGRFTISRDNAKNTVYLQMNSLIPEVTAVYYCAAYTWDTDHYWYGYVPYDYWGQGTQVTVSS,low polyreactivity
16,QVHLVESGGGLVQAGGSLRLSSAASGSTFLYYGMGWYRQAPGTERELVATITWRGGRTYYADSVKGRFTISRDNAKNSVYLQMNSLNPEDTAVYYCAARVVGSYLKPYPYGLYYWGQGTQVTVSS,high polyreactivity
17,QVQLVESGGGLVQAGGSLRLSCAASGSIFDVYTMGWDREAPGKERELVAAINTGGGSTYYADSVKGRFTISRDNAKNTVYLQMNSLKPEDTAVYYCAASVYHYGPLYYWGQGTQVTVSS,low polyreactivity
18,QVQLQESGGGLVQAGGTLRLSCAASGSFSADEDMGWYRQAQGKEREFVAGISVGGNTNYADSVKGRFTISRENAKNTVYLQINSLKPEDTAVYYCAVLQDVYDALDYWAQGTQVTVSS,high polyreactivity
19,QVQLVESGGGLVQAGGSHRLSCAASGRIFALNAMGWYRQAPGKERELVDAIDTSSGDTYYADSVKGRFTISRDNAKNTVNLQMNCLKPEDTAVYYCAAEGLSPYAYVFSNYDYWGQGTQVTVSS,low polyreactivity
20,QVQLVESGGGLVQAGGSLRLICAASGSIFTKYTMGWSRQAPGKERELVAAITLRGTSTYYADSVKGRFTISRDNAMNTVYLQMNSLIPEDTAFYYCNKLYSWVVAYDYWGQGTQVTVSS,high polyreactivity
21,QVQLVESGGGLVQAGGSHRLSCAASGIIFRGYPMGWYRPAPGIERELVASITRRRGSTRYADSVKGRFTISRDNAKNTVYLQMNSLKPEDTAVYYCAAVGVGKTSTAYGYWGQGTQVTVSS,high polyreactivity
